The values that follow come from article PMC4831024.

Test [1] concerns the target GFP–WRN ΔX (deleted XLF-like motif) (human) (UniProt Q14191). Description: co-IP; GFP-tagged proteins recovered on GFP-TRAP beads from transfected HEK293T extract (25 mM Tris-HCl pH 7.5, 150 mM NaCl, 10% glycerol, 0.5% Triton X-100, 1 mM DTT), 1 h at 4 °C; immunoblot for GFP, Ku80 and DNA–PKcs; Ku quantified by ImageJ relative to wild-type WRN. A general note: A western blot detects proteins with antibodies after separation by electrophoresis.

Test [2] concerns the target Ku (Homo sapiens) (UniProt P12956). The following applies: cited from earlier work.

Sequence of Ku (Homo sapiens) (P12956 2-609, chain 1 of 2): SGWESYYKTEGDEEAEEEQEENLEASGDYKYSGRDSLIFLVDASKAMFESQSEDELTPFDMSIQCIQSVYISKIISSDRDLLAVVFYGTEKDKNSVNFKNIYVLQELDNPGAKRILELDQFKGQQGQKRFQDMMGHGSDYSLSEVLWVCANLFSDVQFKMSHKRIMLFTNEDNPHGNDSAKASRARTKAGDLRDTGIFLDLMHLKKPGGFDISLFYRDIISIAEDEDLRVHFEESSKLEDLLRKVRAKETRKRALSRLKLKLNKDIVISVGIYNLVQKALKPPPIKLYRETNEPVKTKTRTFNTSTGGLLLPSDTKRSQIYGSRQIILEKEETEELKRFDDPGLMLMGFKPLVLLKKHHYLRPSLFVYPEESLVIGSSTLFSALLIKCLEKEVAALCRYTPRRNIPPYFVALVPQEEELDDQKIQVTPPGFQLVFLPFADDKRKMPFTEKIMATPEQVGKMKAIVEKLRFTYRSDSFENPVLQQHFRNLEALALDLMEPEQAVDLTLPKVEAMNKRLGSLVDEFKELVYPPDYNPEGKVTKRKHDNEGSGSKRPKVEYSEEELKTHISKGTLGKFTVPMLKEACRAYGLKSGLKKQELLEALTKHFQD
Sequence of Ku (Homo sapiens) (P13010 2-732, chain 2 of 2, further chain): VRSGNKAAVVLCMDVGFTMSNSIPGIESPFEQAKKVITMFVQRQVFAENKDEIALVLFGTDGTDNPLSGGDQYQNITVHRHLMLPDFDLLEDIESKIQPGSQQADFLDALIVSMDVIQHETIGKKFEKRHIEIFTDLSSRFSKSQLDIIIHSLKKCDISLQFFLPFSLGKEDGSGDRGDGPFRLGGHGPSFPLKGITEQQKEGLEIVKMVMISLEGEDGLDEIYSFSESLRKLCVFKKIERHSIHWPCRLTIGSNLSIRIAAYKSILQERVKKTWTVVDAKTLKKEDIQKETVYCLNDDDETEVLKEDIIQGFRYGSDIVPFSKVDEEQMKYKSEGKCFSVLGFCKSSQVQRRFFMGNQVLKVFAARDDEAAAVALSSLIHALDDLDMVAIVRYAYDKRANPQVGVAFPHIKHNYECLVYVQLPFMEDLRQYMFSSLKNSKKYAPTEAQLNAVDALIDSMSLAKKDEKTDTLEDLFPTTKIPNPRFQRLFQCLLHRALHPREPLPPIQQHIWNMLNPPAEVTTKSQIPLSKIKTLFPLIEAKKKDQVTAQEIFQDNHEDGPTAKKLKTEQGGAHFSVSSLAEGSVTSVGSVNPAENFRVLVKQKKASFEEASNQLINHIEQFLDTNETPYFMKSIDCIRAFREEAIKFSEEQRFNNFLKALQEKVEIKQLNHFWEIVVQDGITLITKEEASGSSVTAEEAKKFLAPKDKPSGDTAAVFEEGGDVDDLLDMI
Sequence of Ku80, endogenous (P13010 whole entry): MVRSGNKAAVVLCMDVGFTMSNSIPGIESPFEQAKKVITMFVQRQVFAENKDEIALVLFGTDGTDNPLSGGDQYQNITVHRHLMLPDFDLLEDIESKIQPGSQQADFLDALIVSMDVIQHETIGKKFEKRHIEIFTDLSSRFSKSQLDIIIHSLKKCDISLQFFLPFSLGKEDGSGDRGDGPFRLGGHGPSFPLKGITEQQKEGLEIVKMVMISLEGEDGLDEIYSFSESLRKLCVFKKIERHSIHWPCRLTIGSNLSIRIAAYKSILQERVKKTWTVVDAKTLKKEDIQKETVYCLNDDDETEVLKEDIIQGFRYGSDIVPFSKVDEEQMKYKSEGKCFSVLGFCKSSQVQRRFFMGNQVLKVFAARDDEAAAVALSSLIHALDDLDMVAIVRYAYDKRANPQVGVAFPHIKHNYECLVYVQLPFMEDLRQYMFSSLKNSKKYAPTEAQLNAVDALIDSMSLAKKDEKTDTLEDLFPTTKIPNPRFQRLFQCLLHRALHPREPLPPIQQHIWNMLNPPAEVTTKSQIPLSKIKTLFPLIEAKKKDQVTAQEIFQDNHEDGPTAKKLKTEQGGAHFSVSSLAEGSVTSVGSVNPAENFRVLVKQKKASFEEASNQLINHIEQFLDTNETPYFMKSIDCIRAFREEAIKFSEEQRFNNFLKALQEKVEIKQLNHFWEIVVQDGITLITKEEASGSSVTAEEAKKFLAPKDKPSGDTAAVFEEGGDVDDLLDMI
Sequence of GFP–WRN ΔX (deleted XLF-like motif) (human) (Q14191 whole entry, stated change not applied): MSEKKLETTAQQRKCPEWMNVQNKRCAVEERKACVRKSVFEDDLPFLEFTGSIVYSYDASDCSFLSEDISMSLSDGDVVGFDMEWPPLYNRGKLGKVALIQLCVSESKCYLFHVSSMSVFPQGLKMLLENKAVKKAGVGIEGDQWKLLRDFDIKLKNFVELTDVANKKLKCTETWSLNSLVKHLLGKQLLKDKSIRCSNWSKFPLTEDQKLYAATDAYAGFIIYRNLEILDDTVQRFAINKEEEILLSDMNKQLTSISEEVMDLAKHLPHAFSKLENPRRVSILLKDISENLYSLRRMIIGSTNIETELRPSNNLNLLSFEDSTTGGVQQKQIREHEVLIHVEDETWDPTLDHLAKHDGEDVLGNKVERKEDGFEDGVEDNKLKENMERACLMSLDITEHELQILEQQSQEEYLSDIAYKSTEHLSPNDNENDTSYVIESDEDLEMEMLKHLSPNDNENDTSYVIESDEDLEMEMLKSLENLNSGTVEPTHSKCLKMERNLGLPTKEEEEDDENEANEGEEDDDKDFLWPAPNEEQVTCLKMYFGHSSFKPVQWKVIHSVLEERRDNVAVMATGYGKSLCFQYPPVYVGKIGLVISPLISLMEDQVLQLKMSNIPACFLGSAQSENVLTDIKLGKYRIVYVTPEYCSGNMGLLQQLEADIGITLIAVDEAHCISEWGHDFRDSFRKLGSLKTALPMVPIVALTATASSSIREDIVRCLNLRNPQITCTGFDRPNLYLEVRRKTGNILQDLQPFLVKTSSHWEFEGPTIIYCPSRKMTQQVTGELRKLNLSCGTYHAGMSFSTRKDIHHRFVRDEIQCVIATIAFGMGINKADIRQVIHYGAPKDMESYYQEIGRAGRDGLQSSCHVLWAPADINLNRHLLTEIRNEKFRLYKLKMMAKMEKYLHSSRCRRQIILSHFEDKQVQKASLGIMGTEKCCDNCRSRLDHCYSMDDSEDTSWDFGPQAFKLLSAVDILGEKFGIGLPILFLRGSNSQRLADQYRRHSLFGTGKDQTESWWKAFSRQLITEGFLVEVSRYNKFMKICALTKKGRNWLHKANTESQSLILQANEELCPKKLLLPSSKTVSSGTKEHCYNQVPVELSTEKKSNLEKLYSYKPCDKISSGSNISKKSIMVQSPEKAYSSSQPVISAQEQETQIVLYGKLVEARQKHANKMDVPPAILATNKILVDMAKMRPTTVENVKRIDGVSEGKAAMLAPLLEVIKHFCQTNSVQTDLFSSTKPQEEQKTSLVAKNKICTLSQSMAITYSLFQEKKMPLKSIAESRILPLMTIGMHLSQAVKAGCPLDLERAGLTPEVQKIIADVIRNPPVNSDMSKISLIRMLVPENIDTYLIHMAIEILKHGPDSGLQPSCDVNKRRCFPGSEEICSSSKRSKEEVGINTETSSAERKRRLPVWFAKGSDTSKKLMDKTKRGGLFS

“Ku80, endogenous (from UniProt P13010 1-732) (natural protein)” gave a percent reduction of Ku co-precipitated, relative to wild-type GFP-WRN in test [1] of 30%.
For APLF KBM (from UniProt Q8IW19), the Kd in test [2] is 600 nM.

The Kd is the equilibrium constant for the complex coming apart.
